From patent US20060104980A1

What was measured:
[1] = target: HCV 1b E2 construct sf1b-E2 (amino acids 384-661 in pDisplay) (influenza virus; Hepatitis C virus genotype 1b); assay: GNA capture ELISA, HEK-293 extracts
[2] = target: HCV 1b E2 deletion construct pDC-644 (Hepatitis C virus genotype 1b); assay: GNA capture ELISA, HEK-293 extracts
[3] = target: HCV 1b E2 construct sf1b-E2 (amino acids 384-661 in pDisplay) (influenza virus; Hepatitis C virus genotype 1b); assay: flow cytometry, CHO cells expressing sf1b-E2, 10 ug/ml
[4] = target: HCV E2 protein of genotype 1a expressed by vaccinia virus construct Q1a (Hepatitis C virus genotype 1a); assay: competition ELISA; competitor CBH-2 against biotinylated CBH-5
[5] = target: HCV E2 protein of genotype 1b expressed by vaccinia virus construct Q1b (Hepatitis C virus genotype 1b); assay: as above
[6] = target: HCV E2 protein of genotype 1a expressed by vaccinia virus construct Q1a (Hepatitis C virus genotype 1a); assay: competition ELISA; 20 µg/ml competitor against 2 µg/ml biotinylated CBH-2
[7] = target: HCV E2 protein of genotype 1b expressed by vaccinia virus construct Q1b (Hepatitis C virus genotype 1b); assay: as above
[8] = target: HCV E2 protein of genotype 2a expressed by vaccinia virus construct Q2a (Hepatitis C virus genotype 2a); assay: as above
[9] = target: HCV E2 protein of genotype 2b expressed by vaccinia virus construct Q2b (Hepatitis C virus genotype 2b); assay: as above
[10] = target: HCV E2 protein of genotype 1a expressed by vaccinia virus construct Q1a (Hepatitis C virus genotype 1a); assay: competition on GNA-captured E2; 20 µg/ml competitor against biotinylated CBH-4G
[11] = target: HCV E2 1a protein produced in mammalian cells (Rosa et al.) (Hepatitis C virus genotype 1a); assay: NOB assay, inhibition of E2 binding to CD81 expressing Molt-4 cells, flow cytometry
[12] = target: HCV E2 1a protein produced in mammalian cells (Rosa et al.) (Hepatitis C virus genotype 1a); assay: NOB assay
[13] = target: HCV 1b E2 deletion construct pDN-447 (Hepatitis C virus genotype 1b) (UniProt P29846); assay: GNA capture ELISA, HEK-293 extracts
[14] = target: HCV 1b E2 deletion construct pDN-470 (Hepatitis C virus genotype 1b) (UniProt Q9WMX2); assay: GNA capture ELISA, HEK-293 extracts
[15] = target: HCV 1b E2 (Q1b) bound to GST-CD81-LEL (Hepatitis C virus genotype 1b; human) (UniProt P60033); assay: ELISA, 1b E2 captured by CD81-LEL; 50% of maximum binding
[16] = target: HCV 1b E2 deletion construct pDC-579 (Hepatitis C virus genotype 1b); assay: flow cytometry, transiently transfected HEK-293 cells, 10 ug/ml
[17] = target: HCV 1b E2 deletion construct pDC-644 (Hepatitis C virus genotype 1b); assay: as above
[18] = target: HCV 1b E2 deletion construct pDN-447 (Hepatitis C virus genotype 1b) (UniProt P29846); assay: as above
[19] = target: HCV 1b E2 deletion construct pDN-470 (Hepatitis C virus genotype 1b) (UniProt Q9WMX2); assay: as above
[20] = target: HCV E2 protein of genotype 1a expressed by vaccinia virus construct Q1a (Hepatitis C virus genotype 1a); assay: competition ELISA; competitor CBH-5 against biotinylated CBH-2
[21] = target: HCV E2 protein of genotype 1b expressed by vaccinia virus construct Q1b (Hepatitis C virus genotype 1b); assay: as above
[22] = target: HCV E2 protein of genotype 2a expressed by vaccinia virus construct Q2a (Hepatitis C virus genotype 2a); assay: as above
[23] = target: HCV E2 protein of genotype 2b expressed by vaccinia virus construct Q2b (Hepatitis C virus genotype 2b); assay: as above
[24] = target: HCV E2 protein of genotype 1a expressed by vaccinia virus construct Q1a (Hepatitis C virus genotype 1a); assay: competition ELISA; 25 µg/ml competitor against 5 µg/ml biotinylated CBH-5
[25] = target: HCV E2 protein of genotype 1b expressed by vaccinia virus construct Q1b (Hepatitis C virus genotype 1b); assay: as above
[26] = target: HCV 1b E2 construct sf1b-E2 (amino acids 384-661 in pDisplay) (influenza virus; Hepatitis C virus genotype 1b); assay: flow cytometry, CHO cells expressing sf1b-E2
[27] = target: denatured HCV 1b E2 protein (Q1b) (Hepatitis C virus genotype 1b); assay: GNA capture ELISA, denatured against native E2 (FIG. 9)

Substance	OD [1]	OD [2]	mean fluorescence [3]	percent inhibition of biotinylated CBH-2 binding [6]	percent inhibition of biotinylated CBH-2 binding [7]	percent inhibition of biotinylated CBH-2 binding [8]	percent inhibition of biotinylated CBH-2 binding [9]	percent inhibition of biotinylated CBH-4G binding [10]	IC50 [11]	OD [13]	OD [14]	mean fluorescence [16]	mean fluorescence [17]	mean fluorescence [18]	mean fluorescence [19]	other results
HMAb CBH-2 (antibody)	> 0.5 od	0.1 to 0.5 od	338	> 75%	> 75%	> 75%	> 75%	< 50%	5 mg/L	–	–	–	–	–	–	percent inhibition of biotinylated CBH-5 binding [4]: 50%; percent inhibition of biotinylated CBH-5 binding [5]: 50%
HMAb CBH-4B (antibody)	> 0.5 od	> 0.5 od	241	–	–	–	–	< 50%	–	> 0.5 od	> 0.5 od	2	18	21	9	IC50 [12]: > 25 mg/L; EC50 [15]: 0.4 mg/L
HMAb CBH-5 (antibody)	> 0.5 od	> 0.5 od	546	> 75%	> 75%	> 75%	> 75%	< 50%	2 mg/L	–	–	2	28	2	2	percent inhibition of biotinylated CBH-2 binding [20]: 80%; percent inhibition of biotinylated CBH-2 binding [21]: 80%; percent inhibition of biotinylated CBH-2 binding [22]: 80%; percent inhibition of biotinylated CBH-2 binding [23]: 80%; percent inhibition of biotinylated CBH-5 binding [24]: 85%; percent inhibition of biotinylated CBH-5 binding [25]: 85%
HMAb CBH-7 (antibody)	> 0.5 od	> 0.5 od	303	60%	–	–	–	< 50%	7 mg/L	> 0.5 od	> 0.5 od	2	27	26	14	–
HMAb CBH-8C (antibody)	> 0.5 od	> 0.5 od	282	> 75%	> 75%	> 75%	> 75%	< 50%	10 mg/L	–	–	–	–	–	–	–
HMAb CBH-8E (antibody)	> 0.5 od	0.1 to 0.5 od	408	> 75%	> 75%	> 75%	> 75%	< 50%	8 mg/L	–	–	–	–	–	–	percent inhibition of biotinylated CBH-5 binding [24]: 75%; percent inhibition of biotinylated CBH-5 binding [25]: 75%
HMAb CBH-17 (antibody)	> 0.5 od	–	23	–	–	–	–	< 50%	–	> 0.5 od	> 0.5 od	–	–	–	–	IC50 [12]: > 25 mg/L; fold reduced staining relative to the other HMAbs [26]: 10 fold; percent of reactivity retained with denatured E2 [27]: 90%; EC50 [15]: 3 mg/L
